Experimental data from patent US20170173105A1, “AUTOASSEMBLING PEPTIDES FOR THE TREATMENT OF PULMONARY LEAKAGE” (3-D MATRIX, LTD., priority 2014, published 2017).

How the values were obtained:
Assay type in all cases: physicochemical
[1] = Rheological measurements of RADA16 mixed with salts (stiffness, reversibility, gelation kinetics); details: (RADA)4 about 2.5 w/v percent; calcium chloride about 0.125 M
[2] = as above; details: for gelation kinetics by ion: 0.5% RADA16; for storage modulus: (RADA)4 about 0.5 w/v percent
Method: In a rheological comparison of 2.5% RADA16 and 2.5% RADA16+NaCl, KCl, and CaCl2, solutions of 0.5% RADA16 mixed with 0.005, 0.05, 0.125, 0.25, 0.5, and 1 M NaCl, KCl, and CaCl2 were prepared. The anion, chloride (Cl—), was kept the same to observe the effect of the cations, sodium (Na+), potassium (K+), and calcium (Ca2+). FIG. 21 provides a basic understanding of how varying the cations of a salt solution effects the viscoelastic properties and the stiffness of self-assembling peptides. […] This should be because Ca has […] higher ionic strength than Na and K at the same molar concentrations. Therefore, influence of salts on the peptide solution is more related to their ionic strength rather than their molar concentration, as shown in FIGS. 17-18 and Table 2a-c. In some embodiments, there is a correlation between the properties of the peptide solutions with salts based on the concentration of the salts.
Rheological measurements of stiffness of 2.5% RADA16 and 2.5% RADA16+0.25 M CaCl2 was evaluated.
Rheological measurements of reversibility of 0.5% RADA16 solution with +0.125, 0.25, and 0.5 M CaCl2 were evaluated. Solutions of 0.5% RADA16 mixed with 0.125, 0.25, and 0.5 M CaCl2 were prepared. The structure of the self-assembled peptide solution were disrupted thoroughly by application of mechanical stress through vortexing and sonication. The mixtures were placed at room temperature for 48 hours to allow self-assembly to take place. […] FIG. 23a presents raw rheological data of the control peptide solution with salts and the perturbed peptide solutions with salts while FIG. 23b provides a comparison of stiffness of the control peptide solutions and the perturbed peptide solutions.
Rheological measurements of gelation kinetics of 0.5% RADA16+NaCl, KCl, and CaCl2 were evaluated. A solution of 0.5% RADA16 was prepared and gelation kinetics were observed by treatment with several cations (e.g. Na, […], K) and anions (e.g. Cl, CO3, PO4, SO4). It was determined how long it will take for the peptide mixtures to gel and how to control that gelation time by varying the cation/anion type and concentration. […] In vivo and in vitro qualitative experiments and the resulting observations were supportive of these conclusions.
Due to the success of topically added solution of NaCl gently massaged into 2.5% RADA16 increasing the burst pressure of 2.5% RADA16, other salt based solutions were completely mixed with RADA16 and their mechanical properties were measured. […] The results can be seen in FIG. 29 with respect to the storage modulus (i.e. mechanical strength) of 0.5% PuraMatrix (RADA16) mixed with NaCl, KCl, or CaCl2 at varying concentrations.

[3] = Rheological properties of peptide solutions (1%) before and after DMEM treatment (rheometer); details: DMEM 2 minutes, compared with weaker peptide solutions (i.e. PuraMatrix®)
Method: The effects of Dulbecco's modified Eagle's medium (DMEM) (pH 7.4) on the rheological properties of IEIK13, KLD12, and PuraMatrix® were evaluated on a rheometer (AR500, TA Instruments) with 40 mm plates. DMEM is generally a cell culture medium that contains 6.4 g/L of NaCl, 3.4 g/L NaHCO3 (sodium bicarbonate), minor amounts of other salts, various amino acids, and 4.5 g/L of glucose. The pH level of DMEM is generally 7.2±0.2 and the osmolality is 335±30 mOsm/Kg H2O; both measurements are close to human physiological fluids such as blood.
Peptide solutions (1%) were kept at 4° C. for at least 48 hours before testing. To perform the experiment, 1 mL of peptide solution was gently pipetted and placed on the plate of the rheometer. 2 mL of DMEM solution was gently added around the peptide solution. The peptide solution was treated with DMEM for two minutes, then the media was removed, and the plates were placed at a measuring geometry gap at around 450 μm. Measurements were performed at 37° C. after 2 min of relaxation time. Frequency tests were performed from 1 rad/s to 100 rad/s at 1 Pa of oscillation stress.
The rheological properties of the peptides (1%) were compared before and after DMEM treatment for 2 minutes, as shown in FIG. 1A. […]

Substance | storage modulus [1] | mechanical properties (storage modulus) with calcium chloride compared with sodium chloride or potassium chloride ([2]; 0.5% PuraMatrix (RADA16) mixed with salts at varying concentrations) | gelation kinetics by ion ([2]; treatment with chlorine) | gelation kinetics by ion ([2]; treatment with sulfate) | reversibility after perturbation ([2]; 0.5% RADA16 with CaCl2 within the optimal salt concentration range, vortexing and sonication, 48 hours room temperature) | stiffness with added CaCl2 compared with peptide alone ([2]; 2.5% RADA16 vs 2.5% RADA16 with CaCl2 (0.25 M / 0.125 M printed)) | storage modulus ([2]; calcium chloride about 0.125 M) | storage modulus ([2]; calcium chloride about 0.250 M) | storage modulus ([2]; calcium chloride about 0.500 M) | enhancement of stiffness by cations ([2]; RADA16 mixed with NaCl, KCl, CaCl2 at the same molar concentrations (0.005-1 M)) | fold increase of storage modulus after DMEM treatment [3]
Arg-Ala-Asp-Ala-Arg-Ala-Asp-Ala-Arg-Ala-Asp-Ala-Arg-Ala-Asp-Ala [PuraMatrix ®] | about 600 Pa | greater mechanical properties | quickest gelation | slowest gelation | remained reversible | noticeable increase in stiffness | about 25 Pa | about 44 Pa | about 52 Pa | Ca provided the best enhancement of stiffness | 
Ile-Glu-Ile-Lys-Ile-Glu-Ile-Lys-Ile-Glu-Ile-Lys-Ile [IEIK13] |  |  |  |  |  |  |  |  |  |  | lower-fold increase
